According to USRE50631E1, “ROR1 antibody immunoconjugates” (VelosBio Inc., priority 2017, dated 2025):

Assays:
ROR1 on Jeko-1 cells = biological target: T1, ROR1 on Jeko-1 cells (Homo sapiens, UniProt Q01973); test: Binding to ROR1-positive Jeko-1 cells (flow cytometry receptor binding assay); conditions: 20 minutes on ice, PE secondary antibody
T1 construct: The Jeko-1 cell line, from mantle cell lymphoma, is a suspension cell line; host or cells: Jeko-1 (human mantle cell lymphoma)
Protocol: The binding to tumor cells by antibodies Ab1 and 4A5, as well as ADC constructs derived from those antibodies (ADC-A and ADC-T), was evaluated. First, the binding of Ab1 to two ROR1-positive human tumor cell lines representing different cancer types was tested. The Jeko-1 cell line, from mantle cell lymphoma, is a suspension cell line, while the MDA-MB-231 cell line, from triple negative breast cancer, is an adherent cell line. The cell lines have different levels of ROR1 expression, with Jeko-1 cells displaying about 13507 cell surface copies and the MDA-MB-231 cells displaying about 21015 cell surface copies. The Jeko-1 (ATCC Cat. No. CRL-3006) and MDA-MB-231 (ATCC Cat. No. […]) cell lines were purchased from the American Type Culture Collection and were maintained according to the ATCC recommendations.
Jeko-1 cells (FIG. 2A) or MDA-MB-231 cells (FIG. 2B) were incubated with 0, 1, 10, 100, or 1000 ng/mL of Ab1 for 20 minutes on ice. After washing off unbound antibody, the cells were incubated with secondary anti-human IgG antibody labeled with phycoerythrin (PE) for an additional 20 minutes. The amount of PE fluorescence was measured using the BDFACS Verse analyzer and FlowJo V10 software. The PE signal for the highest concentration was used as the maximal binding signal to calculate the % maximal binding. EC50 was calculated using GraphPad Prism 7. […]

Mino = test: Cytotoxicity in vitro (CellTiter-Glo viability), Mino; type: cell-based, human; conditions: Mino (MCL), 72 hours
Protocol: Cells were cultured in log phase growth and distributed into 96-well plates. Each cell line was plated at a slightly different cell density, ranging from 5×10^3 to 50×10^4 cells/well. Cells in duplicate were incubated with 3-fold serial dilution of a particular immunoconjugate (10, 3.33, 1.11, 0.37, 0.12, 0.041, 0.014, and 0.0045 μM) for 72 hours at 37° C. and 5% CO2. After treatment, cells were incubated with an equal volume of CellTiter-Glo® reagent (Promega Inc.) for 15 minutes at room temperature and viability was determined by a luminometer. Curves and EC50 values were generated in GraphPad Prism using a sigmoidal dose response non-linear regression fit.
Cells were grown and distributed into 96-well plates as described in Example 5. Cells in duplicate were incubated with 3-fold serial dilution of a particular immunoconjugate (660, 220, 73.3, 24.4, 8.14, 2.71, 0.91, and 0.3 nM) for 72 hours at 37° C. and 5% CO2. In some experiments, cells were incubated with an immunoconjugate for 96 hours instead of 72 hours (values highlighted with “*”). After treatment, cell viability was determined as described in Example 5.

Jeko-1 MCL xenograft = test: Jeko-1 human MCL xenograft model (study 7); type: in vivo, mouse; conditions: 1 mg/kg ADC-N, ADC-P, ADC-R; 5 mg/kg ADC-A, ADC-L, ADC-M, ADC-S, ADC-T; IV Q4D
Protocol: Jeko-1 (MCL) cells were engrafted subcutaneously into mice. When tumor size reached 100 mm^3, the mice were randomized into nine groups, 9 mice/group. The groups were vehicle control; 1 mg/kg ADC-N, ADC-P or ADC-R; or 5 mg/kg ADC-A, ADC-L, ADC-M, ADC-S, or ADC-T. The mice were dosed IV q4d.

T1 sequence (Q01973 30-937): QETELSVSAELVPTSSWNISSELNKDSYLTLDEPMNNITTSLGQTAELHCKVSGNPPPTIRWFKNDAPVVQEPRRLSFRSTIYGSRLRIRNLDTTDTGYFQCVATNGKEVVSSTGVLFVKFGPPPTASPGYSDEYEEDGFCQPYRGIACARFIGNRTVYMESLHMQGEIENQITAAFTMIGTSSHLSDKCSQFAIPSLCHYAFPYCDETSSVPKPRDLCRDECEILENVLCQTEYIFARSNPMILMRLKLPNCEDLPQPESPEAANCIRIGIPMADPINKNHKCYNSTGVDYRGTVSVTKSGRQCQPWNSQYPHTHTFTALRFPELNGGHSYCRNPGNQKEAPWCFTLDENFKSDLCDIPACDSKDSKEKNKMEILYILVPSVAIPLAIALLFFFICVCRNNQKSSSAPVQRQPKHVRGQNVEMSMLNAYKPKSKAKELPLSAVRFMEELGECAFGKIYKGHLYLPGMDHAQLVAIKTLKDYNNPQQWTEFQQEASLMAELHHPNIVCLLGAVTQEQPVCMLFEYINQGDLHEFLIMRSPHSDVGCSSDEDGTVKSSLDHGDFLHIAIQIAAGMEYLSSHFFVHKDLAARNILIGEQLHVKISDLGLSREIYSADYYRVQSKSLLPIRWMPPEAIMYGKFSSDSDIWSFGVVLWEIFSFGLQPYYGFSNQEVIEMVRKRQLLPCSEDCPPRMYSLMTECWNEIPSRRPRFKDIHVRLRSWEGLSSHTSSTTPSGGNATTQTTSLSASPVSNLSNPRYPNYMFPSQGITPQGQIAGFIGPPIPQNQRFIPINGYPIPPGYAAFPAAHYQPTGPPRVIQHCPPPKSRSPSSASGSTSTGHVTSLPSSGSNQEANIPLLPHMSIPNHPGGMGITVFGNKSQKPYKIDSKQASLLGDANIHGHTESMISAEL

Row | Molecule | EC50 of binding to cells (ROR1 on Jeko-1 cells) [µg/mL] | EC50 (Mino) [nM] | tumor growth / average tumor size (interim results, day 14) (Jeko-1 MCL xenograft)
1 | D10: a lower affinity antibody that binds the same epitope as Ab1 (antibody, V domains shown) VH: QVQLKESGPGLVAPSQTLSITCTVSGFSLTSYGVHWVRQPPGKGLEWLGVIWAGGFTNYNSALKSRLSISKDNSKSQVLLKMTSLQTDDTAMYYCARRGSSYSMDYWGQGTSVIVSS VL: EIVLSQSPAITAASLGQKVTITCSASSNVSYIHWYQQRSGTSPRPWIYEISKLASGVPVRFSGSGSGTSYSLTISSMEAEDAAIYYCQQWNYPLITFGSGTKLEIQ | 0.25 |  | 
2 | ADC-S: D10 conjugated via MAL-VC-PAB to MMAE (conjugate) VH: QVQLKESGPGLVAPSQTLSITCTVSGFSLTSYGVHWVRQPPGKGLEWLGVIWAGGFTNYNSALKSRLSISKDNSKSQVLLKMTSLQTDDTAMYYCARRGSSYSMDYWGQGTSVIVSS VL: EIVLSQSPAITAASLGQKVTITCSASSNVSYIHWYQQRSGTSPRPWIYEISKLASGVPVRFSGSGSGTSYSLTISSMEAEDAAIYYCQQWNYPLITFGSGTKLEIQ | 0.15 | 83.3 | Significant tumor regression
